We go through one protein from doi:10.1101/2023.06.05.543797, “Crystal structure of SUN1-KASH6 reveals an asymmetric LINC complex architecture compatible with nuclear membrane insertion” (bioRxiv, 2023).

The data set deals with the molecule itself. Nature of the data set: crystal structure; co-expressed and co-purified SUN1-KASH6 complex at 12 mg/ml; sitting drops, 20°C; crystals at pH 6.0 (1.7 Å) and pH 5.5 (2.0 Å and 2.3 Å).

B1: KASH domain of human JAW1/LRMP (amino-acids 515-555) (peptide, UniProt Q12912 515-555, looked up)
chain: TGQLFQKSVDAAPTQQEDSWTSLEHILWPFTRLRHNGPPPV
notes: JAW1/LRMP (lymphoid restricted membrane protein), human, KASH domain, amino-acids 515-555; also called KASH6; KASH6 peptide; not shown: His6, N-terminal, cleaved; MBP, N-terminal, cleaved
Regarding B1, the binding result was “binds”.
